This is an account of results in publication PMC3592474.

Details in all cases: 100 mM Na+, pH 7.5, 21 C; slow pulling (100 nm/s) for equilibrium measurements
Series [1] concerns HMGB2 (box A), +/- His tag average (human). Put plainly: optical tweezers, WLC/FJC linear combination fit.
For series [2], the system named is Nhp6Ap (Saccharomyces cerevisiae). Put plainly: optical tweezers, WLC/FJC linear combination fit.
Series [3] has as its system HMGB2 (box A), +/- His tag average (human). Put plainly: optical tweezers, overstretching force vs concentration.
The test system of series [4] is HMGB2 (box A) +his (human). The series is described as above.
In series [5] the test system is Nhp6Ap (Saccharomyces cerevisiae). The description is as above.
The subject of series [6] is HMGB2 (box A) -his (human). The description is as above.
Series [7] relates to HMGB2 (box A), +/- His tag average (human). Description: optical tweezers, persistence/contour length vs concentration.
In series [8] the test system is HMGB2 (box A) +his (human). The description is as above.
In series [9] the test system is Nhp6Ap (Saccharomyces cerevisiae). The series is described as above.
For series [10], the system named is HMGB2 (box A) -his (human). Described as above.
Series [11] relates to HMGB2 (box A), +/- His tag average (human). Description: optical tweezers, persistence/contour length, Hill fit.
Series [12] has as its system Nhp6Ap (Saccharomyces cerevisiae). The series is described as above.
Series [13] relates to HMGB2 (box A), +/- His tag average (human). Description: optical tweezers, overstretching force, Hill fit.
Series [14] concerns Nhp6Ap (Saccharomyces cerevisiae). Put plainly: optical tweezers, overstretching force, Hill fit.

A word on the Kd: it is the equilibrium constant for the complex coming apart. Regarding phage lambda DNA, the Kd came to 460 nM in series [1]; 63 nM in series [2]; 880 nM in series [3]; 930 nM in [4]; 160 nM in series [5]; 830 nM in [6]. Also, the Kd came out at 180 nM in series [7]; 230 nM in [8]; 71 nM in series [9]; 130 nM in series [10]; 170 nM in series [11]; 66 nM in [12]. Moreover, the figures for the Kd in [13] and in series [14] were 850 nM and 150 nM, respectively.
